The values below come from US9688764B2, “Methods of treating breast cancer by administering anti-human prolactin receptor (PRLR) antibodies” (REGENERON PHARMACEUTICALS, INC., priority 2013, dated 2017).

Test [1] has as its target T1, hPRLR.mmh (soluble monomeric human PRLR) (Homo sapiens, UniProt P16471).
T1 construct: soluble monomeric (hPRLR.mmh); mmh (myc-myc-hexahistidine)
As to the kind of experiment: Surface plasmon resonance (Biacore T200), mAb-capture format. The format is binding. The settings on record: antibody-capture format, analyte hPRLR.mmh. The protocol: (§1) Antibodies, expressed as human IgG1 Fc “[…]” designations), were captured onto an anti-human Fc sensor surface (mAb-capture format), and soluble monomeric (hPRLR.mmh; SEQ ID NO:401, or macaca fascicularis (mf) PRLR.mmh; SEQ ID NO:403) or dimeric (hPRLR.mFc; SEQ ID NO:402) PRLR protein was injected over the sensor surface. Measurements were conducted on a T200 Biacore instrument. Kinetic association (ka) and dissociation (kd) rate constants were determined by processing and fitting the data to a 1:1 binding model using Scrubber 2.0 curve fitting software.

The target in test [2] is mfPRLR.mmh (monomeric macaca fascicularis PRLR). The description is as above. The format is binding. The settings on record: antibody-capture format, analyte mfPRLR.mmh. The method, then: as §1
Test [3] has as its target T2, hPRLR.mFc (soluble dimeric human PRLR) (Homo sapiens, UniProt P16471).
T2 construct: dimeric (hPRLR.mFc)
The test is described as above. The format is binding. The settings on record: antibody-capture format, analyte hPRLR.mFc. The protocol:
as §1

For test [4], the target named is T3, T47D (native PRLR expressing cell line) (Homo sapiens, UniProt P16471).
T3 construct: a native PRLR expressing cell line (T47D); endogenous in cells; host or cells: T47D
T3 sequence (P16471 25-622): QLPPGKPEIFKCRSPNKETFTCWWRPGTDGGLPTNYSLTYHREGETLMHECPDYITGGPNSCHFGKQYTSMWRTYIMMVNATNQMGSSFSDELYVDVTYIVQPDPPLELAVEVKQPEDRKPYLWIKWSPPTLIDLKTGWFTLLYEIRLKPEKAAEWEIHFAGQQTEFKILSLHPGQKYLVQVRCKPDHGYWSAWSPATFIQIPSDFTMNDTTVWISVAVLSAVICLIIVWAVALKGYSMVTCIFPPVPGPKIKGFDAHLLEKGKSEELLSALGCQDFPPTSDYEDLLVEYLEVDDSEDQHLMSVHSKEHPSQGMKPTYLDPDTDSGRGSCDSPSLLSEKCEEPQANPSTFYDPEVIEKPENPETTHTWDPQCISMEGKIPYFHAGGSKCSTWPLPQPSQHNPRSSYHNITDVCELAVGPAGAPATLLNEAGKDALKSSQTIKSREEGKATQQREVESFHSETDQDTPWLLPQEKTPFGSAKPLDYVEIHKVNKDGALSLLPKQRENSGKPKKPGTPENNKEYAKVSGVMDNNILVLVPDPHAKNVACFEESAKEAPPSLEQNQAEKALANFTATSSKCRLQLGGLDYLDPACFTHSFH
As to the kind of experiment: FACS cell surface binding. The method, then:
(§2) The ability of anti-PRLR antibodies to selectively bind PRLR expressing cell lines was next determined. Human, monkey macaca fascicularis, and mouse PRLR constructs with an HA tag were stably introduced into HEK293 cells via Lipofectamine 2000-mediated transfection methodology. Transfectants (HEK293/hPRLR, HEK293/mfPRLR and HEK293/mPRLR) were selected for at least 2 weeks in complete growth media plus G418.
(§3) Cell surface expression of PRLR on 293/hPRLR cells was assessed via FACS analysis. Briefly, 1×10^5 cells were incubated with 10 μg/ml of Control antibody I, or an isotype control for 30 min on ice in antibody dilution buffer. Following two washes with antibody dilution buffer, cells were incubated with 10 μg/ml of PE conjugated anti-human secondary antibodies for 30 min on ice. Following two additional washes, samples were run on a Hypercyt® cytometer and analyzed in FORECYT™ (IntelliCyt, Albuquerque, N. Mex.). The mean fluorescence intensities (MFI) were expressed as fold change above isotype control levels (background). FACS binding confirmed that Control I selectively bound to 293/hPRLR expressing cells with MFIs that were 30 fold above background (isotype ctrl) levels and less than 2 fold binding on parental cells.
(§4) Next, the anti-PRLR antibodies of the present invention were tested via FACS for selective binding to the engineered overexpressing PRLR HEK293 cell lines, as well as to non-expressing HEK293 cells and a native PRLR expressing cell line (T47D).

In another test the target is T4, HEK293/mPRLR (Mus musculus, UniProt Q08501).
T4 construct: HA; expressed in transfected cells; host or cells: HEK293
T4 sequence (Q08501 20-608): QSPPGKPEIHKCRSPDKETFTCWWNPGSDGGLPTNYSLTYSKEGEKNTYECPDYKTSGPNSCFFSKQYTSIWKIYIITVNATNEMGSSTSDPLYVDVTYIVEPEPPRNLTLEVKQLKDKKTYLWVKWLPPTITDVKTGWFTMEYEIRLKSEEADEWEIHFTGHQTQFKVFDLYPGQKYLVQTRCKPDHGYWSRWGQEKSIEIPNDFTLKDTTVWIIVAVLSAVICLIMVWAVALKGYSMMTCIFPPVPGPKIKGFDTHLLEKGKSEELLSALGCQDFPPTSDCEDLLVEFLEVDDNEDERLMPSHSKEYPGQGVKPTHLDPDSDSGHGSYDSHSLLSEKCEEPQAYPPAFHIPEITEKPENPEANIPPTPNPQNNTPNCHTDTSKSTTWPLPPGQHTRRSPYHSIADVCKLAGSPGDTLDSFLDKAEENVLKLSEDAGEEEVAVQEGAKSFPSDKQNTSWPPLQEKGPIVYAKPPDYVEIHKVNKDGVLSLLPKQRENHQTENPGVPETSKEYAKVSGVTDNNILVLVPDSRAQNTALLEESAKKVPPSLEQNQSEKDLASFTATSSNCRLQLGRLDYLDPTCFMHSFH
As to the kind of experiment: FACS cell surface binding. The method, then:
as §2, §3, §4

Another test has as its target T5, HEK293/hPRLR (Homo sapiens, UniProt P16471).
T5 construct: HA; expressed in transfected cells; host or cells: HEK293
T5 sequence (P16471 25-622): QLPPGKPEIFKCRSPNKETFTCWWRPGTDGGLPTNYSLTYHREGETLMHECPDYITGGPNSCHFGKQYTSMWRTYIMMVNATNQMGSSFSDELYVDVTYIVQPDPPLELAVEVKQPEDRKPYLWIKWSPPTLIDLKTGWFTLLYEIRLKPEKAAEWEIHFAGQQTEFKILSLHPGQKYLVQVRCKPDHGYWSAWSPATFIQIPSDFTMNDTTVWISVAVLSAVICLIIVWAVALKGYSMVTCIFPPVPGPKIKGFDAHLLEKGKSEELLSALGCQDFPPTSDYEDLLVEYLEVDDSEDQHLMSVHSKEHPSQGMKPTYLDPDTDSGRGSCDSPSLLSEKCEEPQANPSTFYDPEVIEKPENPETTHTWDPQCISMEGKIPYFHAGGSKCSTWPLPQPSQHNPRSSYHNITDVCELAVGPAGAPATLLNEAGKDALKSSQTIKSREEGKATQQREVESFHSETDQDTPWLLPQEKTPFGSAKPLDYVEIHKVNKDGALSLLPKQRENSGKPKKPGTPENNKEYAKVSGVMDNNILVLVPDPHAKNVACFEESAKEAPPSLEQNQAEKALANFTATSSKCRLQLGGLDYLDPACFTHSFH
As to the kind of experiment: FACS cell surface binding. The protocol:
as §2, §3, §4

For test [5], the system named is HEK293 (non-expressing parental cells). As to the kind of experiment: FACS cell surface binding. The method, then:
as §2, §3, §4

T1 sequence (P16471 with tags, fused parts or gaps): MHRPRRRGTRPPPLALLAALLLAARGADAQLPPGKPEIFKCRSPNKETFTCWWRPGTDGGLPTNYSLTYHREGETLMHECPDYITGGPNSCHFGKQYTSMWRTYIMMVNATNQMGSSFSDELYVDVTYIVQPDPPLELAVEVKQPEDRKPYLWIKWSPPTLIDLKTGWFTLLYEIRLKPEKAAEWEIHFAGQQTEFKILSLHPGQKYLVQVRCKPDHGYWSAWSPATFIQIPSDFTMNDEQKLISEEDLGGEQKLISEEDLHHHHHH
T2 sequence (P16471 with tags, fused parts or gaps): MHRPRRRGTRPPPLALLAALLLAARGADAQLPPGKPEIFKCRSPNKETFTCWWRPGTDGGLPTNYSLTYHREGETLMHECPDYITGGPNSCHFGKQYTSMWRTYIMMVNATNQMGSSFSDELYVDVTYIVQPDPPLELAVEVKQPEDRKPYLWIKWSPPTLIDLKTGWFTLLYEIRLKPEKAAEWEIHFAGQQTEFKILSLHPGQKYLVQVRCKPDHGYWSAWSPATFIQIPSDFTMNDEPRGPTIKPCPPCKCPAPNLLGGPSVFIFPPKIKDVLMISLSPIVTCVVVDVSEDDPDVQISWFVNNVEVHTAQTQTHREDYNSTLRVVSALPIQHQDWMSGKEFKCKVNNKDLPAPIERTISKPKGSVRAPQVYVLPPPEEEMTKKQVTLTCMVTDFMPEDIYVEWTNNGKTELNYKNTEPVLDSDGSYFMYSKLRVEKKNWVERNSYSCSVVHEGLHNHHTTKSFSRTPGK
Chain of mfPRLR.mmh (monomeric macaca fascicularis PRLR) (as listed by the source): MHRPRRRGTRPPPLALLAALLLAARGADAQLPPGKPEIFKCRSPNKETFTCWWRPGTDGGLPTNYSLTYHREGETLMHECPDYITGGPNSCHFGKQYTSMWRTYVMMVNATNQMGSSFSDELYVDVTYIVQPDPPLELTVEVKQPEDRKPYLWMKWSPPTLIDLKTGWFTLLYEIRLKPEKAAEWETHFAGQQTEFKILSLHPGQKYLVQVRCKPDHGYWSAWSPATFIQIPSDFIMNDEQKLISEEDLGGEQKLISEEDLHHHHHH

B1: H1H6960N: human IgG1 Fc form of H2M6960N; anti-PRLR; HCVR/LCVR SEQ ID NOs 322/330 (antibody, V domains shown)
VH: EVQLVESGGGLVKPGGSLRLSCAASGITFSSYSMNWVRQAPGKGLEWVSSISTRSSLIHYADSVKGRFTISRDNAKNSLYLQMNSLRDEDTAVYYCARWDAAAAFDYWGQGTLVIVSS
VL: DIQLTQSPSFLSASVGDRVTITCWASQGISSYLAWYQQKPGKAPKLLIYVASTLQSGVPSRFSGSGSGTEFTLTISSLQPEDFATYFCQQLNSYPLTFGGGTKVEIK
modifications: human IgG1 Fc
As a reminder, the Kd is the concentration at which binding is half-saturated. High values mean weaker binding, low ones tighter binding. As to B1, the dissociation constant (Kd) in test [1] (25° C.) came out at 6.74 nM; in test [1] (37° C.), 16.2 nM; in test [2] (25° C.), 6.2 nM; in test [2] (37° C.) it was 14.9 nM; in test [3] (25° C.), 0.141 nM; in test [3] (37° C.), 0.5 nM. Further, the T½ is recorded as 15.8 min in test [1] (25° C.); 5.8 min in test [1] (37° C.); 19.8 min in test [2] (25° C.); 9.0 min in test [2] (37° C.); 324.4 min in test [3] (25° C.); 78.7 min in test [3] (37° C.). For the same molecule, the “FACS Cell Binding (Fold Above Background)” value was determined as 33 Fold Above Background in test [4], 1 Fold Above Background in the test with HEK293/mPRLR, 29 Fold Above Background in the test with HEK293/hPRLR and 1 Fold Above Background in test [5].

B2: H1H6958N2: human IgG1 Fc form of H2M6958N2; anti-PRLR, receptor blocking; HCVR/LCVR SEQ ID NOs 290/298 (antibody, V domains shown)
VH: QVQLVESGGGVVQPGRSLRLSCGASGFTFRNYGMQWVRQGPGKGLEWVTLISFDGNDKYYADSVKGRFTISRDNSKNTLFLQMNSLRTEDTAVYYCARGGDFDYWGQGTLVTVSS
VL: DIQMTQSPSSLSASVGDRVTITCRASQDIRKDLGWYQQKPGKAPKRLIYAASSLHSGVPSRFSGSGSGTEFTLTISSLQPEDFATYYCLQHNSYPMYTFGQGTKLEIK
modifications: human IgG1 Fc
In the case of B2, the Kd in test [1] (25° C.) turned out to be 1.17 nM; in test [1] (37° C.), 3.16 nM; in test [2] (25° C.), 1.44 nM; in test [2] (37° C.), 4.08 nM; in test [3] (25° C.), 0.0867 nM; in test [3] (37° C.), 0.167 nM. In addition, the T½ in test [1] (25° C.) came out at 42.5 min; in test [1] (37° C.), 8.8 min; in test [2] (25° C.), 41.3 min; in test [2] (37° C.) it was 8.6 min; in test [3] (25° C.), 315.8 min; in test [3] (37° C.) it was 83.3 min. Further, the “FACS Cell Binding (Fold Above Background)” value in test [4] was found to be 37 Fold Above Background; with HEK293/mPRLR it was 1 Fold Above Background; in the test with HEK293/hPRLR, 35 Fold Above Background; in test [5] it was 1 Fold Above Background.

B3: H1H6959N2: human IgG1 Fc form of H2M6959N2; anti-PRLR; HCVR/LCVR SEQ ID NOs 306/314 (antibody, V domains shown)
VH: EVQLVESGGGLVQPGRSLRLSCAASGFTFDDYAMHWVRQAPGKGLEWVSGISWHSGIIGYADSVKGRFTISRDNAKNSLYLQMNSLRTEDAALYYCAKIGSYFYFDSWGQGTLVTVSS
VL: EIVLTQSPGTLSLSPGERATLSCRASQSVSSNYLAWYQQKPGQAPRLLIYGASSRATGIPDRFSGSGSGTDFTLTISRLEPEDFAVYYCQQFGSSGYTFGQGTNLEIK
modifications: human IgG1 Fc
As for B3, the Kd turned out to be 202 nM in test [1] (25° C.); 681 nM in test [1] (37° C.); 129 nM in test [2] (25° C.); 370 nM in test [2] (37° C.); 1.45 nM in test [3] (25° C.); 4.51 nM in test [3] (37° C.). Also, the T½ in test [1] (25° C.) was 0.3 min; in test [1] (37° C.), 0.4 min; in test [2] (25° C.) it was 0.7 min; in test [2] (37° C.) it was 0.7 min; in test [3] (25° C.), 22.3 min; in test [3] (37° C.), 5.0 min. In addition, the “FACS Cell Binding (Fold Above Background)” value is on record as 9 Fold Above Background in test [4], 2 Fold Above Background in the test with HEK293/mPRLR, 6 Fold Above Background in the test with HEK293/hPRLR and 1 Fold Above Background in test [5].

B4: H1H6966N: human IgG1 Fc form of H2M6966N; anti-PRLR; HCVR/LCVR SEQ ID NOs 338/346 (antibody, V domains shown)
VH: QVQLVQSGAEVQKPGASVKVSCKVSGYTLTALSIHWVRQAPGKGLEWMGNFDPGDGETIHAQKFQGRVTMTGDTSTDTAYMELSSLRSEDTAVYYCVGVTFDYWGQGTLVTVSS
VL: EIVMTQSPATLSVSPGERATLSCRASQSVASNLAWYQQKPGQAPRLLLYGASTRATGIPARFSGSGSGTEFTLTISSLQSEDFALYYCQHYNNWPLTFGGGTKVEIK
modifications: human IgG1 Fc
Consider B4, for which the Kd in test [1] (25° C.) amounted to 0.302 nM; in test [1] (37° C.) it was 0.607 nM; in test [2] (25° C.), 0.416 nM; in test [2] (37° C.), 0.982 nM; in test [3] (25° C.), 0.0439 nM; in test [3] (37° C.), 0.0672 nM. Besides, the T½ in test [1] (25° C.) is 44.9 min; in test [1] (37° C.), 12.0 min; in test [2] (25° C.) it was 35.6 min; in test [2] (37° C.) it was 9.6 min; in test [3] (25° C.), 282.9 min; in test [3] (37° C.), 91.3 min. Further, the “FACS Cell Binding (Fold Above Background)” value in test [4] was 31 Fold Above Background; with HEK293/mPRLR, 1 Fold Above Background; with HEK293/hPRLR, 29 Fold Above Background; in test [5], 1 Fold Above Background.
